Assay [1] deals with T1, GFP-His6::sExu531 (Drosophila melanogaster).
T1 chain: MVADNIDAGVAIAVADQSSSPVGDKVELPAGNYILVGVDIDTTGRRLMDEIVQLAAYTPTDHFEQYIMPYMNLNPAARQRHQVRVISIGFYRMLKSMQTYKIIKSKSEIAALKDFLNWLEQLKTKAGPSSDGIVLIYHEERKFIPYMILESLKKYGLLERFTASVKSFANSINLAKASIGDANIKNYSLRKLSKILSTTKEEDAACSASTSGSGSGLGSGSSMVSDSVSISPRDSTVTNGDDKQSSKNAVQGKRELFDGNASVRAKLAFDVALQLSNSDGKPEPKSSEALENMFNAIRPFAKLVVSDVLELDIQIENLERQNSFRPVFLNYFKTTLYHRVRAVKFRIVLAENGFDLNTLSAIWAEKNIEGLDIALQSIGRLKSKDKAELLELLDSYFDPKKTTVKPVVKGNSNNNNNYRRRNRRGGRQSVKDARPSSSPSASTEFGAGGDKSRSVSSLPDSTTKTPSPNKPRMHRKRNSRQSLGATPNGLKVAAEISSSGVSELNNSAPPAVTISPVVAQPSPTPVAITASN
In words: SEC. The following applies: remark: other sources report otherwise.

Assay [2] addresses T1, GFP-His6::sExu531 (Drosophila …). In words: SEC. The settings on record: remark: other sources report otherwise.

By stoichiometry N is commonly meant the number of molecules, sites or subunits per partner or assembly.

Bounds are passed on as bounds.

B1: GFP-His6::sExu531 (natural protein)
chain: T1 chain
As for B1, the stoichiometry N was > 3 in assay [1] and 3 in assay [2].
